Read-outs that look alike come from different tables or passages of the source.
Experiment: In vivo biodistribution by organ and tissue extraction
Set-up: species or system male Wistar rats
Conditions: male, Wistar, total radioactivity, rat; for SUV at 48 h / tissue uptake dose at 48 h: 2880 min p.i.; for SUV at 1 h / tissue uptake dose at 1 h: 60 min p.i.; for tissue uptake dose at 5 min / SUV at 5 min: 5 min p.i.; for dose excreted at 24 h: kidney and urine, read-out: renal elimination
Procedure: The present study includes data obtained from a total of 50 animals. Four animals (body weight 227 ± 10 g) for each time point were injected intravenously into a tail vein or subcutaneously with approximately 0.3 MBq ([…]) [^64Cu]Cu-NOTA-HsTX1[R14A] conjugate in 0.5 mL electrolyte solution E-153 (Serumwerk Bernburg, Germany). Animals were euthanised at 5, 60, 240, 1440 and 2880 min post-injection. Blood and the major organs were collected, weighed, and counted in a cross-calibrated γ-counter (Isomed 1000, Isomed GmbH, Dresden) and Wallac WIZARD Automatic Gamma Counter (PerkinElmer, Germany). The radioactivity of the tissue samples was decay-corrected and calibrated by comparing the counts in tissue with the counts in aliquots of the injected radiotracer that had been measured in the γ-counter at the same time. The activity in the selected organs was expressed as percent-injected dose per organ (% ID) and the activity concentration in tissues and organs as standardised uptake value (SUV). Values are quoted as mean ± standard error of mean (SEM) for each group of four animals.

[1] = femur, sc, 0.3 MBq, s.c., mean ± SD, n=4, read-out: Femur SUV
[2] = femur, sc, 0.3 MBq, s.c., mean ± SD, n=4, read-out: Femur activity amount
[3] = heart, iv, 0.3 MBq, i.v., mean ± SD, n=4, read-out: Heart activity amount
[4] = heart, iv, i.v., mean ± SD, n=4, read-out: Heart SUV
[5] = heart, sc, 0.3 MBq, s.c., mean ± SD, n=4, read-out: Heart activity amount
[6] = heart, sc, s.c., mean ± SD, n=4, read-out: Heart SUV
[7] = intestine, iv, 0.3 MBq, i.v., mean ± SD, n=4, read-out: Intestine activity amount
[8] = intestine, sc, 0.3 MBq, s.c., mean ± SD, n=4, read-out: Intestine activity amount
[9] = kidneys, iv, 0.3 MBq, i.v., mean ± SD, n=4, read-out: Kidneys SUV
[10] = kidneys, iv, 0.3 MBq, i.v., mean ± SD, n=4, read-out: Kidneys activity amount
[11] = kidneys, sc, 0.3 MBq, s.c., mean ± SD, n=4, read-out: Kidneys SUV
[12] = kidneys, sc, 0.3 MBq, s.c., mean ± SD, n=4, read-out: Kidneys activity amount
[13] = liver, iv, 0.3 MBq, i.v., mean ± SD, n=4, read-out: Liver SUV
[14] = liver, iv, 0.3 MBq, i.v., mean ± SD, n=4, read-out: Liver activity amount
[15] = liver, sc, 0.3 MBq, s.c., mean ± SD, n=4, read-out: Liver SUV

## CSCC[C@@H]1NC(=O)[C@@H]2CSSC[C@H](NC(=O)[C@H](CO)NC(=O)[C@H](C)NC(=O)COCCOCCNC(=O)CN3CCN(CC(=O)O)CCN(CC(=O)O)CC3)C(=O)N[C@@H](CCCNC(=N)N)C(=O)N[C@@H]([C@@H](C)O)C(=O)N3CCC[C@H]3C(=O)N[C@@H](CCCCN)C(=O)N[C@@H](CC(=O)O)C(=O)N[C@H]3CSSC[C@H](NC(=O)[C@H](CCCCN)NC(=O)[C@H](CCCNC(=N)N)NC(=O)[C@H](CC(N)=O)NC1=O)C(=O)N[C@@H](CCCCN)C(=O)N[C@H]1CSSC[C@H](NC(=O)[C@@H]4CCCN4C(=O)[C@H](CC(=O)O)NC(=O)[C@H](C)NC3=O)C(=O)N[C@@H](C)C(=O)N[C@@H](CCCCN)C(=O)N[C@@H](CCC(=O)O)C(=O)N[C@@H]([C@@H](C)O)C(=O)NCC(=O)N[C@@H](CSSC[C@@H](C(N)=O)NC(=O)[C@H](CCCNC(=N)N)NC(=O)[C@H](CC(N)=O)NC1=O)C(=O)N1CCC[C@H]1C(=O)N[C@@H](Cc1ccc(O)cc1)C(=O)NCC(=O)N[C@@H](CCCCN)C(=O)N2 [[^64Cu]Cu-NOTA-HsTX1[R14A], metal not drawn]
femur, iv, 0.3 MBq, i.v., mean ± SD, n=4, read-out: Femur SUV
  SUV at 48 h: 0.39 ± 0.02 SUV
femur, iv, 0.3 MBq, i.v., mean ± SD, n=4, read-out: Femur activity amount
  tissue uptake dose at 48 h: 0.23 ± 0.01 %ID
[1]
  SUV at 1 h: 1.25 ± 0.07 SUV
  SUV at 48 h: 0.34 ± 0.02 SUV
[2]
  tissue uptake dose at 1 h: 0.82 ± 0.04 %ID
  tissue uptake dose at 48 h: 0.19 ± 0.02 %ID
femur, sc, 0.3 MBq, s.c., 240 min p.i., mean ± SD, n=4, read-out: Femur SUV
  SUV at 4 h: 0.92 ± 0.08 SUV
femur, sc, 0.3 MBq, s.c., 240 min p.i., mean ± SD, n=4, read-out: Femur activity amount
  tissue uptake dose at 4 h: 0.64 ± 0.02 %ID
femur, sc, 0.3 MBq, s.c., 1440 min p.i., mean ± SD, n=4, read-out: Femur SUV
  SUV at 24 h: 0.47 ± 0.02 SUV
femur, sc, 0.3 MBq, s.c., 1440 min p.i., mean ± SD, n=4, read-out: Femur activity amount
  tissue uptake dose at 24 h: 0.34 ± 0.01 %ID
[3]
  tissue uptake dose at 5 min: 0.33 ± 0.04 %ID
  tissue uptake dose at 48 h: 0.27 ± 0.04 %ID
heart, iv, 0.3 MBq, i.v., mean ± SD, n=8, read-out: Heart activity amount
  tissue uptake dose at 1 h: 0.21 ± 0.06 %ID
heart, iv, 0.3 MBq, i.v., 240 min p.i., mean ± SD, n=4, read-out: Heart activity amount
  tissue uptake dose at 4 h: 0.19 ± 0.03 %ID
heart, iv, 0.3 MBq, i.v., 1440 min p.i., mean ± SD, n=8, read-out: Heart activity amount
  tissue uptake dose at 24 h: 0.23 ± 0.02 %ID
[4]
  SUV at 5 min: 1.04 ± 0.14 SUV
  SUV at 48 h: 0.64 ± 0.06 SUV
heart, iv, i.v., mean ± SD, n=8, read-out: Heart SUV
  SUV at 1 h: 0.53 ± 0.08 SUV
heart, iv, i.v., 240 min p.i., mean ± SD, n=4, read-out: Heart SUV
  SUV at 4 h: 0.4 ± 0.07 SUV
heart, iv, i.v., 1440 min p.i., mean ± SD, n=8, read-out: Heart SUV
  SUV at 24 h: 0.62 ± 0.07 SUV
[5]
  tissue uptake dose at 1 h: 0.32 ± 0.02 %ID
  tissue uptake dose at 48 h: 0.22 ± 0.01 %ID
heart, sc, 0.3 MBq, s.c., 240 min p.i., mean ± SD, n=4, read-out: Heart activity amount
  tissue uptake dose at 4 h: 0.18 ± 0.03 %ID
heart, sc, 0.3 MBq, s.c., 1440 min p.i., mean ± SD, n=4, read-out: Heart activity amount
  tissue uptake dose at 24 h: 0.23 ± 0.01 %ID
[6]
  SUV at 1 h: 0.7 ± 0.03 SUV
  SUV at 48 h: 0.57 ± 0.04 SUV
heart, sc, s.c., 240 min p.i., mean ± SD, n=4, read-out: Heart SUV
  SUV at 4 h: 0.41 ± 0.06 SUV
heart, sc, s.c., 1440 min p.i., mean ± SD, n=4, read-out: Heart SUV
  SUV at 24 h: 0.53 ± 0.02 SUV
[7]
  tissue uptake dose at 5 min: 3.59 ± 2.4 %ID
  tissue uptake dose at 48 h: 8.27 ± 1.01 %ID
intestine, iv, 0.3 MBq, i.v., mean ± SD, n=8, read-out: Intestine activity amount
  tissue uptake dose at 1 h: 5.3 ± 2.31 %ID
intestine, iv, 0.3 MBq, i.v., 240 min p.i., mean ± SD, n=4, read-out: Intestine activity amount
  tissue uptake dose at 4 h: 4.61 ± 1.84 %ID
intestine, iv, 0.3 MBq, i.v., 1440 min p.i., mean ± SD, n=8, read-out: Intestine activity amount
  tissue uptake dose at 24 h: 16.5 ± 2.32 %ID
[8]
  tissue uptake dose at 1 h: 7.85 ± 3.82 %ID
  tissue uptake dose at 48 h: 8.16 ± 1.02 %ID
intestine, sc, 0.3 MBq, s.c., 240 min p.i., mean ± SD, n=4, read-out: Intestine activity amount
  tissue uptake dose at 4 h: 4.65 ± 1.73 %ID
intestine, sc, 0.3 MBq, s.c., 1440 min p.i., mean ± SD, n=4, read-out: Intestine activity amount
  tissue uptake dose at 24 h: 19.3 ± 1.35 %ID
iv, 0.3 MBq, i.v., one day after injection
  dose excreted at 24 h: 48 ± 3%
sc, 0.3 MBq, s.c., one day after injection
  dose excreted at 24 h: 51 ± 2%
[9]
  SUV at 5 min: 35.1 ± 6.82 SUV
  SUV at 48 h: 6.37 ± 0.59 SUV
[10]
  tissue uptake dose at 5 min: 23.9 ± 3.93 %ID
  tissue uptake dose at 48 h: 6.19 ± 0.49 %ID
kidneys, iv, 0.3 MBq, i.v., mean ± SD, n=8, read-out: Kidneys SUV
  SUV at 1 h: 78.4 ± 13.6 SUV
kidneys, iv, 0.3 MBq, i.v., mean ± SD, n=8, read-out: Kidneys activity amount
  tissue uptake dose at 1 h: 61.6 ± 4.21 %ID
kidneys, iv, 0.3 MBq, i.v., 240 min p.i., mean ± SD, n=4, read-out: Kidneys SUV
  SUV at 4 h: 68.4 ± 4.28 SUV
kidneys, iv, 0.3 MBq, i.v., 240 min p.i., mean ± SD, n=4, read-out: Kidneys activity amount
  tissue uptake dose at 4 h: 63.1 ± 0.97 %ID
kidneys, iv, 0.3 MBq, i.v., 1440 min p.i., mean ± SD, n=8, read-out: Kidneys SUV
  SUV at 24 h: 18 ± 5.32 SUV
kidneys, iv, 0.3 MBq, i.v., 1440 min p.i., mean ± SD, n=8, read-out: Kidneys activity amount
  tissue uptake dose at 24 h: 14.2 ± 2.04 %ID
[11]
  SUV at 1 h: 58.1 ± 5.55 SUV
  SUV at 48 h: 5.98 ± 1.08 SUV
[12]
  tissue uptake dose at 1 h: 53.3 ± 4.9 %ID
  tissue uptake dose at 48 h: 4.95 ± 0.49 %ID
kidneys, sc, 0.3 MBq, s.c., 240 min p.i., mean ± SD, n=4, read-out: Kidneys SUV
  SUV at 4 h: 70.2 ± 4.14 SUV
kidneys, sc, 0.3 MBq, s.c., 240 min p.i., mean ± SD, n=4, read-out: Kidneys activity amount
  tissue uptake dose at 4 h: 62.5 ± 2.36 %ID
kidneys, sc, 0.3 MBq, s.c., 1440 min p.i., mean ± SD, n=4, read-out: Kidneys SUV
  SUV at 24 h: 14.4 ± 1.32 SUV
kidneys, sc, 0.3 MBq, s.c., 1440 min p.i., mean ± SD, n=4, read-out: Kidneys activity amount
  tissue uptake dose at 24 h: 13.6 ± 1.1 %ID
Liver and intestine, iv, 0.3 MBq, i.v., 4 h, read-out: activity in the liver and intestine
  tissue uptake dose at 4 h: 12 ± 3 %ID
Liver and intestine, iv, 0.3 MBq, i.v., one day after injection, read-out: hepatobiliary elimination, maximum
  tissue uptake dose at 24 h: 31 ± 3 %ID
Liver and intestine, sc, 0.3 MBq, s.c., 4 h, read-out: activity in the liver and intestine
  tissue uptake dose at 4 h: 11.4 ± 4 %ID
Liver and intestine, sc, 0.3 MBq, s.c., one day after injection, read-out: hepatobiliary elimination, maximum
  tissue uptake dose at 24 h: 30 ± 3 %ID
[13]
  SUV at 5 min: 1.02 ± 0.53 SUV
  SUV at 48 h: 1.45 ± 0.13 SUV
[14]
  tissue uptake dose at 5 min: 4.6 ± 2.22 %ID
  tissue uptake dose at 48 h: 8.35 ± 0.95 %ID
liver, iv, 0.3 MBq, i.v., mean ± SD, n=8, read-out: Liver SUV
  SUV at 1 h: 1.24 ± 0.31 SUV
liver, iv, 0.3 MBq, i.v., mean ± SD, n=8, read-out: Liver activity amount
  tissue uptake dose at 1 h: 5.43 ± 1.44 %ID
liver, iv, 0.3 MBq, i.v., 240 min p.i., mean ± SD, n=4, read-out: Liver SUV
  SUV at 4 h: 1.78 ± 0.45 SUV
liver, iv, 0.3 MBq, i.v., 240 min p.i., mean ± SD, n=4, read-out: Liver activity amount
  tissue uptake dose at 4 h: 7.01 ± 1.47 %ID
liver, iv, 0.3 MBq, i.v., 1440 min p.i., mean ± SD, n=8, read-out: Liver SUV
  SUV at 24 h: 2.93 ± 0.78 SUV
liver, iv, 0.3 MBq, i.v., 1440 min p.i., mean ± SD, n=8, read-out: Liver activity amount
  tissue uptake dose at 24 h: 14.8 ± 2.42 %ID
[15]
  SUV at 1 h: 1.13 ± 0.23 SUV
  SUV at 48 h: 1.4 ± 0.08 SUV
liver, sc, 0.3 MBq, s.c., mean ± SD, n=4, read-out: Liver activity amount
  tissue uptake dose at 1 h: 4.44 ± 0.74 %ID
liver, sc, 0.3 MBq, s.c., 240 min p.i., mean ± SD, n=4, read-out: Liver SUV
  SUV at 4 h: 1.75 ± 0.63 SUV
liver, sc, 0.3 MBq, s.c., 240 min p.i., mean ± SD, n=4, read-out: Liver activity amount
  tissue uptake dose at 4 h: 6.79 ± 2.27 %ID
liver, sc, 0.3 MBq, s.c., 1440 min p.i., mean ± SD, n=4, read-out: Liver SUV
  SUV at 24 h: 2.23 ± 0.32 SUV
liver, sc, 0.3 MBq, s.c., 1440 min p.i., mean ± SD, n=4, read-out: Liver activity amount
  tissue uptake dose at 24 h: 11.1 ± 1.82 %ID
